Measured values published in US20250288697A1.
Where two headings read alike, the source gives them in different places.

Legend:
[1] = target: recombinant mouse TNFα (mouse) (UniProt P06804)
[2] = target: recombinant mouse TNFα (mouse) (UniProt P06804); remark: listed apart in the source

Chain of UniProt P06804 (P06804 80-235 limits assumed): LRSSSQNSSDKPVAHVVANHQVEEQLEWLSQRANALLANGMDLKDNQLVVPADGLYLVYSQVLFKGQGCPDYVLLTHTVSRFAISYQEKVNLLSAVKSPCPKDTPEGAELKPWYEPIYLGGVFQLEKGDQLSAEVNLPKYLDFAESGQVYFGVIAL

TNFR2-Fc (etanercept), vectorized (Fc fusion)
IC50 (read off the curve); HEK-Blue TNFα reporter (SEAP), % TNFα activity [1]: 0.9 µg/mL | IC50 (read off the curve); HEK-Blue TNFα reporter (SEAP), % TNFα activity [2]: 0.5 µg/mL
